Assay results as given in article PMC5494296.
Values joined by “and” are separate entries in the source; they are usually repeats but may differ in a detail not shown here. Identical values can stand only once.

Assays:
Experiment in all cases: SEC; size-exclusion chromatography of the tag-free proteins after cleavage of the MBP fusion proteins with factor Xa; self-association (oligomeric state); SEC data not shown
[1] = target: Y138A full-length human phenylalanine hydroxylase (human) (UniProt P00439)
[2] = target: Y138E full-length human phenylalanine hydroxylase (human) (UniProt P00439)
[3] = target: Y138F full-length human phenylalanine hydroxylase (human) (UniProt P00439)
[4] = target: Y138K full-length human phenylalanine hydroxylase (human) (UniProt P00439)
[5] = target: double truncated form ΔN102/ΔC24-hPAH (catalytic domain of human phenylalanine hydroxylase) (human) (UniProt P00439)
[6] = target: wild-type human phenylalanine hydroxylase, full-length (wt-hPAH) (human) (UniProt P00439)
[7] = target: ΔN102/ΔC24-Y138A human phenylalanine hydroxylase catalytic domain (human) (UniProt P00439)
[8] = target: ΔN102/ΔC24-Y138E human phenylalanine hydroxylase catalytic domain (human) (UniProt P00439)
[9] = target: ΔN102/ΔC24-Y138F human phenylalanine hydroxylase catalytic domain (human) (UniProt P00439)
[10] = target: ΔN102/ΔC24-Y138K human phenylalanine hydroxylase catalytic domain (human) (UniProt P00439)

“Y138A full-length human phenylalanine hydroxylase (from UniProt P00439 1-452) (enzyme)” was tested, and the stoichiometry N [1] was 4 and 2.

“Y138E full-length human phenylalanine hydroxylase (from UniProt P00439 1-452) (enzyme)” was tested, and the stoichiometry N [2] was 4 and 2.

With “Y138F full-length human phenylalanine hydroxylase (from UniProt P00439 1-452) (enzyme)” the stoichiometry N [3] was 4 and 2.

“Y138K full-length human phenylalanine hydroxylase (from UniProt P00439 1-452) (enzyme)” was tested, and the stoichiometry N [4] was 2 and 4.

“double truncated form ΔN102/ΔC24-hPAH (catalytic domain of human phenylalanine hydroxylase) (from UniProt P00439 103-428) (domain or fragment)” was tested, and the stoichiometry N [5] was 2.

“wild-type human phenylalanine hydroxylase, full-length (wt-hPAH) (from UniProt P00439 1-452) (enzyme)” was tested, and the stoichiometry N [6] was 4 and 2.

In the case of “ΔN102/ΔC24-Y138A human phenylalanine hydroxylase catalytic domain (from UniProt P00439 103-428) (domain or fragment)”, the stoichiometry N [7] was 2.

“ΔN102/ΔC24-Y138E human phenylalanine hydroxylase catalytic domain (from UniProt P00439 103-428) (domain or fragment)” was tested, and the stoichiometry N [8] was 2.

“ΔN102/ΔC24-Y138F human phenylalanine hydroxylase catalytic domain (from UniProt P00439 103-428) (domain or fragment)” showed a stoichiometry N [9] of 2.

Substance “ΔN102/ΔC24-Y138K human phenylalanine hydroxylase catalytic domain (from UniProt P00439 103-428) (domain or fragment)” has a stoichiometry N [10] of 2.
